Entries after “also recorded” stand apart in the source; their conditions may differ. Where two headings read alike, the source gives them in different places.
What was measured:
[1] = Pharmacokinetic study after a single intravenous dose in rats (noncompartmental analysis of plasma concentrations); conditions: for Cmax: test article in plasma (non-released PEG-BNP, or native BNP), equivalent protein mass 0.459 mg/kg IV
Experimental: (§1) Thirty one (31) adult male Sprague-Dawley rats with indwelling jugular vein and carotid artery catheters (JVC/CAC) (Charles River Labs, Hollister, Calif.) were utilized for this study. […] All animals were food fasted overnight. Prior to dosing, the rats were weighed, the tails and cage cards were labeled for identification and the doses were calculated. Anesthesia was induced and maintained with 3.0-5.0% isoflurane. The JVC and CAC were externalized and flushed with HEP/saline (10 IU/mL HEP/mL saline). The predose sample was collected from the JVC and the catheters were plugged, and labeled to identify the jugular vein and carotid artery. When all of the animals had recovered from anesthesia and the predose samples were processed, the animals were dosed, intravenously (IV) via the JVC using a 1 mL syringe containing the appropriate test article and the dead volume of the catheter was flushed with 0.9% saline to ensure the animals received the correct dose.
(§2) Following a single IV dose, blood samples were collected from groups 1A, 2A, 3A and 4A, at 0 (pre-dose collected as described above), 0.03, 0.33, 2.0, 6.0, 12.0 and 72.0 hours and from Groups 1B, 2B, 3B and 4B at 0 (pre-dose collected as described above), 0.17, 1.0, 4.0, 8.0, 24.0 and 48.0 hours via the carotid artery catheter and processed as stated in the protocol. Following the last collection point, the animals were euthanized.
(§3) Concentrations in plasma that were below LLOQ were replaced with zeros prior to generating Tables and PK analysis. In the event that more than half (>50%) of the data points were below zero, mean concentration will not be shown in the figures or used in PK parameters estimation. The following PK parameters were estimated using plasma concentration-time profile of each animal:

[2] = rat, in vivo, iv
Experimental: as §1, §2, §3

[3] = BNP in plasma (released from conjugate or given as native BNP), 0.459 mg/kg IV, rats
[4] = non-released PEG-BNP in plasma, 0.459 mg/kg IV, Sprague Dawley rats

For `CC[C@H](C)[C@@H]1NC(=O)[C@H](CCCNC(=N)N)NC(=O)[C@H](CC(=O)O)NC(=O)[C@H](CCSC)NC(=O)[C@H](CCCCN)NC(=O)[C@H](CCCNC(=N)N)NC(=O)CNC(=O)[C@H](Cc2ccccc2)NC(=O)[C@@H](NC(=O)CNC(=O)[C@H](CO)NC(=O)CNC(=O)[C@H](CCC(N)=O)NC(=O)[C@@H](NC(=O)[C@H](CCSC)NC(=O)[C@H](CCCCN)NC(=O)[C@@H]2CCCN2C(=O)[C@@H](N)CO)C(C)C)CSSC[C@@H](C(=O)N[C@@H](CCCCN)C(=O)N[C@H](C(=O)N[C@@H](CC(C)C)C(=O)N[C@@H](CCCN=C(N)N)C(=O)N[C@@H](CCCN=C(N)N)C(=O)N[C@@H](Cc2cnc[nH]2)C(=O)O)C(C)C)NC(=O)CNC(=O)[C@H](CC(C)C)NC(=O)CNC(=O)[C@H](CO)NC(=O)[C@H](CO)NC(=O)[C@H](CO)NC(=O)[C@H](CO)NC1=O` [BNP, Nesiritide], the “measurable BNP in plasma (in words)” value ([1]; following parent BNP administration IV, rats) was “No measurable plasma concentrations; also recorded: No BNP was measurable” and the Cmax ([2]; 0.459 mg/kg) was 0.00 ng/mL.

Work on “C2-FMOC-PEG2-40K-BNP: releasable mono-PEG conjugate of BNP-32 made with mPEG2-C2-fmoc-NHS-40K; hydrolysis generates unmodified peptide” yielded an AUCINF [1, 3] of 162 ng·h/mL, an MRTlast [1, 3] of 1.84 h and a Tmax [1, 3] of 0.33 h. For the same compound, the “half-life of the conjugate in plasma” value ([1]; intact C2-FMOC-PEG2-40K-BNP in plasma, IV, rats) was 15.0 h, the “Peak concentrations of the conjugate in plasma” value ([2]; male, Sprague-Dawley) was 1300 ng/mL and the “time of peak concentrations of released BNP” value [2] was 0.3 h. For the same compound, the “plasma conjugate concentrations remained above” value ([2]; 24 h) was “above 100 ng/mL”.

With “ButyrALD-40K-BNP: non-releasable mono-PEG conjugate (N-terminus directed) of BNP-32 with mPEG2-Butyr-ALD 40 kDa” the “clearance compared with ButyrALD-10K-BNP (in words)” value ([1]; non-releasable PEG constructs, IV, rats) was “lower”, the “half-life compared with ButyrALD-10K-BNP (in words)” value ([1]; non-releasable PEG constructs, IV, rats, pooled data) was “longer” and the AUCINF [1, 4] was 41300 ng·h/mL. The CL [1, 4] was 0.185 mL/min/kg, the MRTlast [1, 4] was 24.0 h and the T½ [1, 4] was 26.1 h. The Vss [1, 4] was 0.631 L/kg, the Cmax ([1]; Sprague Dawley rats) was 1410 ng/mL and the “peak plasma concentration compared with ButyrALD-10K-BNP (in words)” value [2] was “higher”.

In the case of “ButyrALD-10K-BNP: non-releasable mono-PEG conjugate (N-terminus directed) of BNP-32 with mPEG-Butyr-ALD-10K”, the AUCINF [1, 4] is reported as 96.6 ng·h/mL, the CL [1, 4] is reported as 79.17 mL/min/kg and the MRTlast [1, 4] is reported as 0.368 h. For the same compound, the T½ [1, 4] was 0.272 h, the Vss [1, 4] was 2.27 L/kg and the Cmax ([1]; Sprague Dawley rats) was 355 ng/mL.
